From paper PMC8762332

B1: yeast eukaryotic initiation factor 4B, wild type, C-terminal hexahistidine tag (natural protein)
chain: MAPPKKTVKKMDLTSFLNDDTFGSSWAEEDVDLNKITIPIETANANTIPLSELAHAKNNSNNTRSGGFGGSFGGRSRLDPALGGGSSDRREEYPVPDAPPYRAVINNIPWDITPEGVQAWVEDGLVKPEAVEEVVLPKNLRDPTRLKGNAFVTLKERADLVAVLKFNGTKLNERTVYVSVAAPRRGGGADVDWSSARGSNFQGDGREDAPDLDWGAARGSNFRGPRREREEVDIDWTAARGSNFQGSSRPPRREREEVDIDWSAARGSNFQGSSRPPRREREEPDIDWSAARGSNFQSSSRPPRREREEPDIDWSAARGSNFQSSSRPPRREREKEEPALDWGAARGAQFGKPQQTKNTYKDRSLTNKKTTDEQPKIQKSVYDVLRTEDDDEDEEAEKQNGDAKENKVDAAVEKLQDKTAQLTVEDGDNWEVVGKK

Tests used:
[1] = molecular target: 40S ribosomal subunit in ribosome complexes (40S/PIC, monosomes, polysomes), marked by Rps2 (S. cerevisiae (endogenous in yeast)) (UniProt P25443); assay: co-sedimentation; yeast cultures crosslinked with 2% formaldehyde for 60 min on ice before lysis, 7.5–30% sucrose gradients (41,000 rpm, 5 h, SW-41), 0.63 ml fractions up to the 40S peak analysed by western blotting
UniProt P25443, sequence (P25443 whole entry, looked up, tested part not stated, one chain of several): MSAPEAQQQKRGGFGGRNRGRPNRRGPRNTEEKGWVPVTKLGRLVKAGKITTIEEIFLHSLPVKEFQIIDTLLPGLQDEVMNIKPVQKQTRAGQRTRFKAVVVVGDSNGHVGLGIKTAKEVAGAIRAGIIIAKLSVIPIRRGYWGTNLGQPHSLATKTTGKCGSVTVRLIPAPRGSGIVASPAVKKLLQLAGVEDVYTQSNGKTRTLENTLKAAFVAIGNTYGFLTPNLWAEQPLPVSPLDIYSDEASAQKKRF

[2] = molecular target: 40S ribosomal subunit in ribosome complexes (40S/PIC, monosomes, polysomes), marked by Rps2 (S. cerevisiae (endogenous in yeast)) (UniProt P25443); assay: co-sedimentation; lysates of cycloheximide-treated yeast crosslinked with 1% formaldehyde (30 min on ice, quenched with 0.1 M glycine), 5–45% sucrose gradients, 10 fractions of 1 ml, western blotting of fractions (anti-His for eIF4B, Rps2, eIF4A, eIF4G)

Molecule	percent reduction of eIF4B in Rps2-containing fractions against WT [1]	percent of the protein in fractions that lack 40S subunits and ribosomes [2]	percent of the protein in Rps2/40S subunit-containing fractions [2]
yeast eIF4B lacking the N-terminal domain, C-terminal hexahistidine tag (domain or fragment)	93%	80%	–
B1	–	–	55%
